Assay [1] concerns the target adenovirus fiber knob as shown on Av3GFP adenoviral vector particles. The experiment in a line: cell-based or functional assay.
For assay [2], the target named is adenovirus fiber knob as shown on Cy3-labeled adenoviral vector particles. The experiment in a line: depletion of Cy3-labeled adenovirus from suspension by fluorimetry; D1 tethered on nitinol.
For assay [3] the target is unchanged. The assay can be described thus: depletion of Cy3-labeled adenovirus; D1-tethered against anti-knob Ab-tethered metal surfaces.
Assay [4] has the same target. The assay can be described thus: depletion of Cy3-labeled adenovirus from suspension by fluorimetry; D1 tethered on Co/Cr alloy.
The target is the same in assay [5]. The assay can be described thus: depletion of Cy3-labeled adenovirus from suspension by fluorimetry; D1 tethered on stainless steel.

Values joined by “and” are separate entries in the source; they are usually repeats but may differ in a detail not shown here. Identical values can stand only once.

The text below walks through data of US20070092489A1.

Substance “D1-FGF2 fusion protein (CAR D1 ligated to basic fibroblast growth factor FGF2 by intein-mediated protein ligation) (from UniProt P78310 15-140; P09038 134-288)” showed a concentration required to achieve maximal GFP expression (Av3GFP transduction of SKOV-3 cells) in assay [1] of 14 nM.
With “thiol-containing form of the D1 domain of the coxsackie-adenovirus receptor (D1-Cys), covalently immobilized on a metal surface (from UniProt P78310 15-140)”, the figures for the amount of Ad bound per cm^2 of the surface in assay [2], in assay [4] and in assay [5] were 1.16e+10 Ad per cm^2, 1.51e+10 Ad per cm^2 and 1.08e+10 Ad per cm^2, respectively. For the same substance, the fold greater adenovirus binding than the specific antibody (anti-knob Ab) in assay [3] is 2 fold and 4 fold.
